According to paper PMC4822156, “Structural basis for ligand-dependent dimerization of phenylalanine hydroxylase regulatory domain” (Scientific Reports, 2016):

Biological target: the molecule itself
Test: SEC-MALS; hTH-RD in the absence of amino acid ligand (Supplementary Fig. S2C)

B1: regulatory domain of human tyrosine hydroxylase (hTH-RD), residues 65-160 (domain or fragment, UniProt P07101 96-191, looked up)
chain: GDPLEAVAFEEKEGKAVLNLLFSPRATKPSALSRAVKVFETFEAKIHHLETRPAQRPRAGGPHLEYFVRLEVRRGDLAALLSGVRQVSEDVRSPAG
notes: tyrosine hydroxylase (TH), human, regulatory domain, residues 65-160; which isoform the numbers count on is told only by GenBank number 88900503; Vector pFB-Lic-Bse; source: insect sf9 cells, purified (as the PAH domains); not shown: His6, N-terminal, cleaved
stoichiometry N: 2
